{"source": "patent US20110020225A1", "about": "“POROUS POLYMER PARTICLES IMMOBILIZED WITH CHARGED MOLECULES AND METHOD FOR PREPARING THE SAME” (KOREA RESEARCH INSTITUTE OF BIOSCIENCE AND BIOTECHNOLOGY, priority 2007, published 2011)", "origin": "cited, not measured here", "molecules": {"B1": {"name": "ovalbumin-fluorescent dye: ovalbumin-fluorescent dye (45 kDa, pI=4.6) having a negative charge at pH 7.4 (conjugate, UniProt P01012 2-386, looked up)", "Ovalbumin": "GSIGAASMEFCFDVFKELKVHHANENIFYCPIAIMSALAMVYLGAKDSTRTQINKVVRFDKLPGFGDSIEAQCGTSVNVHSSLRDILNQITKPNDVYSFSLASRLYAEERYPILPEYLQCVKELYRGGLEPINFQTAADQARELINSWVESQTNGIIRNVLQPSSVDSQTAMVLVNAIVFKGLWEKAFKDEDTQAMPFRVTEQESKPVQMMYQIGLFRVASMASEKMKILELPFASGTMSMLVLLPDEVSGLEQLESIINFEKLTEWTSSNVMEERKIKVYLPRMKMEEKYNLTSVLMAMGITDVFSSSANLSGISSAESLKISQAVHAAHAEINEAGREVVGSAEAGVDAASVSEEFRADHPFLFCIKHIATNAVLFFGRCVSP", "modifications": "fluorescent dye"}}, "details": "negative charge at pH 7.4"}
{"molecule": "B1", "values": [{"measurement": "pI", "value": 4.6}]}
